Measurements from patent US20180044385A1 (published 2018).

Target: human IgG1 scaffold
Test: SPR

Kd [nM] | Binder
3000 | WT (other) LTPAVTTYKLVINGKTLKGETTTKAVDAATAEKVFKQYANDNGVDGEWTYDDATKTFTVTEKPEVI
24 | A1 (designed binder) MKGETTTEAVDAATAEKVFKQYANDNGVDGEWTYDDATKTFTVTEKPEVIDASELTPAVTTYKLVINGRTLSGYTTTTAVDAATAEKVFKQYAYVHEVDGEWTYDDATKTFTVTEKPEVIDASELTPAVTTYKLVINGRTLSGETTTKAVDAETAEKAFKQYANDNGVDGVWTYDDATKTFTVTE
